Measurements taken from publication doi:10.1101/581934.

Biological target: MeCP2-MBD WT (Homo sapiens, UniProt P51608 80-164)
Test: ITC

MeCP2-MBD WT, sequence (P51608 80-164): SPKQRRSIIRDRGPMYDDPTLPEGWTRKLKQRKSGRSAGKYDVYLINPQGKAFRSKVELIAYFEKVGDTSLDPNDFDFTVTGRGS

Binder | Kd [µM]
Mutated MARs DNA 16mer (dsDNA) DNA 1: GCCCTGGTGTAGTGGC DNA 2: GCCACTACACCAGGGC | 3.8 ± 0.7
MARs DNA 16mer (dsDNA) DNA 1: GTGCAGGTGTCCTTAA DNA 2: TTAAGGACACCTGCAC | 2.8 ± 0.2
